{"source": "paper PMC5336186", "about": "(Nature cell biology, 2017)", "key": {"[1]": {"molecular_target": "T1, GST-LLGL2, unphosphorylated (No-P) (UniProt Q6P1M3 1-1020)", "T1 sequence (looked up)": "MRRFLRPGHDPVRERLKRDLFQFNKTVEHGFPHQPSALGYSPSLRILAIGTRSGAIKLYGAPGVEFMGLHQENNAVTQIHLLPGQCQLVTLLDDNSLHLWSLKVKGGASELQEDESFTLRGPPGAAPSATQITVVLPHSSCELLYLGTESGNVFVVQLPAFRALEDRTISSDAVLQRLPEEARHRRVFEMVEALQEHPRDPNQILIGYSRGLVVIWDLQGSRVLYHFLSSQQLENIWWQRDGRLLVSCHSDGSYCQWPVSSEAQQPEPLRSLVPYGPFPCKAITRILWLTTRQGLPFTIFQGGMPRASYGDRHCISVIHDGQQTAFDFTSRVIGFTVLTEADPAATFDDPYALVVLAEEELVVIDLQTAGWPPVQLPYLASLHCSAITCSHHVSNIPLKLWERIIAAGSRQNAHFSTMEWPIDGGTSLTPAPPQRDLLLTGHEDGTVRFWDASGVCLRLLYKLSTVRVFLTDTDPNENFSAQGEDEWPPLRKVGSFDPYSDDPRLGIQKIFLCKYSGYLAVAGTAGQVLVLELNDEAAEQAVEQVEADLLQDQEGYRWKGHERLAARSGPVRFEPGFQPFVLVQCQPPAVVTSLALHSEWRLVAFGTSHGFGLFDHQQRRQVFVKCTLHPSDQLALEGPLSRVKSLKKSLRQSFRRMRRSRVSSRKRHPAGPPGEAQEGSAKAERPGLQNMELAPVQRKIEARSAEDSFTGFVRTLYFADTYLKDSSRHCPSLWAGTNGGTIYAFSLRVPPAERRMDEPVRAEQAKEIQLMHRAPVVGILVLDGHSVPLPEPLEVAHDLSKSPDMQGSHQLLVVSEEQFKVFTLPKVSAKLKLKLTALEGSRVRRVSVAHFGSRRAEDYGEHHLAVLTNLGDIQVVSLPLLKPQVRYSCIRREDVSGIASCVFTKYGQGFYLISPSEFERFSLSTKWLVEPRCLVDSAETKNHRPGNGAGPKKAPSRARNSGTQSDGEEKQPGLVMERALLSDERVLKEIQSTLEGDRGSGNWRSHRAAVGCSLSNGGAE", "test": "pull-down"}, "[2]": {"molecular_target": "T2, GST-LLGL2 phosphorylated at Tyr499 (P-LLGL2) (UniProt Q6P1M3 1-1020, phosphotyrosine at Tyr499)", "T2 sequence (looked up)": "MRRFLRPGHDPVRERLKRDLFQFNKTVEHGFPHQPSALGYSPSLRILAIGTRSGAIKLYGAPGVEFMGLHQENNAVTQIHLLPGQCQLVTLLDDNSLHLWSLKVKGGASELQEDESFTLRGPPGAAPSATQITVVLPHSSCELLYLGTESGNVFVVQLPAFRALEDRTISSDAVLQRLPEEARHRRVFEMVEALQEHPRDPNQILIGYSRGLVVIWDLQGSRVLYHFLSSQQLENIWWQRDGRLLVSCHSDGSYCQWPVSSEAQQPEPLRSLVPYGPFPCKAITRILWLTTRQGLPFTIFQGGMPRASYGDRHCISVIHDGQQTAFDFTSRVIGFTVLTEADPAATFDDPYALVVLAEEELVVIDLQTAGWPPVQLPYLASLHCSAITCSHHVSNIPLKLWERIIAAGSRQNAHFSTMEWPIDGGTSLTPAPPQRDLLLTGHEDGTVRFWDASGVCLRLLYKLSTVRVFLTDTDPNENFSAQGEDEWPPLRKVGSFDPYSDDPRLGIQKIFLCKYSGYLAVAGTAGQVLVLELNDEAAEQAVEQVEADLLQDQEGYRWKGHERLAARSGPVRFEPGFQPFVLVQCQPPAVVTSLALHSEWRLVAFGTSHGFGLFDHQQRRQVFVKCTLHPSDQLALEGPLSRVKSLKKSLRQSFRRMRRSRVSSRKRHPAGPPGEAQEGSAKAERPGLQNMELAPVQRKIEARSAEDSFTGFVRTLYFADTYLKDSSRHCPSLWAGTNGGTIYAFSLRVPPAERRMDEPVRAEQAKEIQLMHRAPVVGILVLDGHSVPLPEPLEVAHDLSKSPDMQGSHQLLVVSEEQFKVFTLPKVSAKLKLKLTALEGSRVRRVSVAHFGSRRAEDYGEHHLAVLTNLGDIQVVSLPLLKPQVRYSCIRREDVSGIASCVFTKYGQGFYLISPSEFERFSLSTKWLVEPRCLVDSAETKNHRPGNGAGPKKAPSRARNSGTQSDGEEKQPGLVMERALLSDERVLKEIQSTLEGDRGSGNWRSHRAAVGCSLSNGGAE", "test": "pull-down"}}, "data": [{"binder": "recombinant BCAR3 (natural protein, UniProt O75815 1-825, looked up) MAAGKFASLPRNMPVNHQFPLASSMDLLSSRSPLAEHRPDAYQDVSIHGTLPRKKKGPPPIRSCDDFSHMGTLPHSKSPRQNSPVTQDGIQESPWQDRHGETFTFRDPHLLDPTVEYVKFSKERHIMDRTPEKLKKELEEELLLSSEDLRSHAWYHGRIPRQVSENLVQRDGDFLVRDSLSSPGNFVLTCQWKNLAQHFKINRTVLRLSEAYSRVQYQFEMESFDSIPGLVRCYVGNRRPISQQSGAIIFQPINRTVPLRCLEEHYGTSPGQAREGSLTKGRPDVAKRLSLTMGGVQAREQNLPRGNLLRNKEKSGSQPACLDHMQDRRALSLKAHQSESYLPIGCKLPPQSSGVDTSPCPNSPVFRTGSEPALSPAVVRRVSSDARAGEALRGSDSQLCPKPPPKPCKVPFLKVPSSPSAWLNSEANYCELNPAFATGCGRGAKLPSCAQGSHTELLTAKQNEAPGPRNSGVNYLILDDDDRERPWEPAAAQMEKGQWDKGEFVTPLLETVSSFRPNEFESKFLPPENKPLETAMLKRAKELFTNNDPKVIAQHVLSMDCRVARILGVSEEMRRNMGVSSGLELITLPHGHQLRLDIIERHNTMAIGIAVDILGCTGTLEDRAATLSKIIQVAVELKDSMGDLYSFSALMKALEMPQITRLEKTWTALRHQYTQTAILYEKQLKPFSKLLHEGRESTCVPPNNVSVPLLMPLVTLMERQAVTFEGTDMWEKNDQSCEIMLNHLATARFMAEAADSYRMNAERILAGFQPDEEMNEICKTEFQMRLLWGSKGAQVNQTERYEKFNQILTALSRKLEPPPVKQAEL", "values": [{"measurement": "binding result", "setting": "[1]", "value": "binds"}, {"measurement": "binding result", "setting": "[2]", "value": "binds"}]}]}
